Laboratory results reported in patent publication US20250076311A1 (Chugai, published 2025).
Changes are numbered by the printed parent chain.

Columns and labels:
[1] = target: T1, human FcγRIIaH extracellular domain with C-terminal His-tag (human, UniProt P12318 34-217); assay: SPR (BIACORE), antibody captured, FcgR analyte
T1 construct: also called human FcgRIIaH; FcγRIIa type H; not shown: His-tag added to the C-terminus
T1 sequence: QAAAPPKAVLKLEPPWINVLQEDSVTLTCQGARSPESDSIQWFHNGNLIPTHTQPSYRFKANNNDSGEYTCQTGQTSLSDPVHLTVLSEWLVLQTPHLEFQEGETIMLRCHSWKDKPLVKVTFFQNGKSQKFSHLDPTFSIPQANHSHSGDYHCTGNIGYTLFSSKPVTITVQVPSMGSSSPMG

[2] = target: T2, cynomolgus monkey FcγRIIIaS extracellular domain with C-terminal His-tag (cynomolgus monkey, UniProt A3RFZ7 21-206 (rhesus entry)); assay: SPR (BIACORE), antibody captured, FcgR analyte
T2 construct: also called cyno FcgRIIIaS; cynoFcγRIIIaS; not shown: His-tag added to the C-terminus

[3] = target: T3, human FcγRIIIaV extracellular domain with C-terminal His-tag (human, UniProt P08637 17-208); assay: SPR (BIACORE), antibody captured, FcgR analyte
T3 construct: also called human FcgRIIIaV; not shown: His-tag added to the C-terminus
T3 sequence (P08637 17-208 F176V): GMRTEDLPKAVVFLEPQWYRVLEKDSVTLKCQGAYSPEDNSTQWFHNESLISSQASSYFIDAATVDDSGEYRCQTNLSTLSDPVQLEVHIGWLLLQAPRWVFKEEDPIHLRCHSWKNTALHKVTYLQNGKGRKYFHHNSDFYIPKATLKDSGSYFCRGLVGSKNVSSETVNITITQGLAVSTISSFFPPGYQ

[4] = target: T2, cynomolgus monkey FcγRIIIaS …; assay: SPR (BIACORE); KD of SG1 / KD of variant
Description: (§1) The kinetic analysis of interactions between these antibodies and FcγR was carried out using BIACORE® T200 or BIACORE® 4000 (GE Healthcare). HBS-EP+ (GE Healthcare) was used as the running buffer, and the measurement temperature was set to 25° C. […] After the measurement, the antibody captured on the chip was washed off by allowing reaction with 10 mM glycine-HCl, pH1.5 and 25 mM NaOH so that the chip was regenerated and used repeatedly. The sensorgrams obtained as measurement results were analyzed by the 1:1 Langmuir binding model using the BIACORE® Evaluation Software to calculate the binding rate constant ka (L/mol/s) and dissociation rate constant kd (1/s), and the dissociation constant KD (mol/L) was calculated from these values. […] Regarding such interactions, KD values were calculated using the following 1:1 binding model described in BIACORE® T100 Software Handbook BR1006-48 Edition AE.

[5] = target: T4, cynomolgus monkey FcγRIIa3 extracellular domain with C-terminal His-tag (cynomolgus monkey); assay: SPR (BIACORE), antibody captured, FcgR analyte
T4 construct: also called cyno FcgRIIa3; cynoFcγRIIa3; not shown: His-tag added to the C-terminus
T4 chain: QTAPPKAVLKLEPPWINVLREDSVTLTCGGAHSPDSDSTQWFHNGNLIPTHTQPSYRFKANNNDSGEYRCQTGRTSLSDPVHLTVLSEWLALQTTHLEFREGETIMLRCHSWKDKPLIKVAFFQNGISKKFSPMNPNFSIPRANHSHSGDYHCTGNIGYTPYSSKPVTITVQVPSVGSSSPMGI

[6] = target: T5, human FcγRIIb extracellular domain with C-terminal His-tag (human, UniProt P31994 43-217); assay: SPR (BIACORE), antibody captured, FcgR analyte
T5 construct: also called human FcgRIIb; not shown: His-tag added to the C-terminus
T5 sequence: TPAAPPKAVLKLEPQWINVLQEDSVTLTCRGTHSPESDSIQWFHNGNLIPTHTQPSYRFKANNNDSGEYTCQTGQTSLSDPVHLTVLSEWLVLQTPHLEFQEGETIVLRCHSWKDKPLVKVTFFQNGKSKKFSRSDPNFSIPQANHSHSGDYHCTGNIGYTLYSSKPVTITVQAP

[7] = target: T6, human FcγRIIaR extracellular domain with C-terminal His-tag (human, UniProt P12318 34-217); assay: SPR (BIACORE), antibody captured, FcgR analyte
T6 construct: also called human FcgRIIaR; FcγRIIa type R; not shown: His-tag added to the C-terminus
T6 chain: T1 sequence with H134R

[8] = target: T7, cynomolgus monkey FcγRIIIaS extracellular domain with C-terminal His-tag (cynomolgus monkey, UniProt A3RFZ7 21-206 (rhesus entry)); assay: SPR Biacore, antibody captured, FcgR analyte
T7 construct: also called cyno FcgRIIIaS; cynoFcγRIIIaS; not shown: His-tag added to C-terminus

[9] = target: T8, human FcγRIIIaV extracellular domain with C-terminal His-tag (human, UniProt P08637 17-208); assay: SPR Biacore, antibody captured, FcgR analyte
T8 construct: also called human FcgRIIIaV; not shown: His-tag added to C-terminus
T8 sequence (P08637 17-208 F176V): as the sequence (P08637 17-208 F176V) above

[10] = target: T9, human FcγRIIb extracellular domain with C-terminal His-tag (human, UniProt P31994 43-217); assay: SPR Biacore, antibody captured, FcgR analyte
T9 construct: also called human FcgRIIb; not shown: His-tag added to C-terminus
T9 sequence: T5 sequence

[11] = target: T10, cynomolgus monkey FcγRIIb extracellular domain with C-terminal His-tag (cynomolgus monkey); assay: SPR Biacore, antibody captured, FcgR analyte
T10 construct: also called cyno FcgRIIb; cynoFcγRIIb; not shown: His-tag added to C-terminus
T10 chain: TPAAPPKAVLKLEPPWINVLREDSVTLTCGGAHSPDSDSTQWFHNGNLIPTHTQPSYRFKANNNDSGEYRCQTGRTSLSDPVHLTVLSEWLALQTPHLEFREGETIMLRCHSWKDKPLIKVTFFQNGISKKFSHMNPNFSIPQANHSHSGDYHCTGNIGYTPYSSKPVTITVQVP

[12] = target: T11, cynomolgus monkey FcγRIIa2 extracellular domain with C-terminal His-tag (cynomolgus monkey); assay: SPR Biacore, antibody captured, FcgR analyte
T11 construct: also called cyno FcgRIIa2; cynoFcγRIIa2; not shown: His-tag added to C-terminus
T11 chain: T4 chain with I127K, K130N, P133H, R142Q

[13] = target: T12, cynomolgus monkey FcγRIIa3 extracellular domain with C-terminal His-tag (cynomolgus monkey); assay: SPR Biacore, antibody captured, FcgR analyte
T12 construct: also called cyno FcgRIIa3; cynoFcγRIIa3; not shown: His-tag added to C-terminus
T12 chain: T4 chain

[14] = target: T13, cynomolgus monkey FcγRIIIaS extracellular domain, His-tagged (cynomolgus monkey, UniProt Q8SPW2 21-206 at identity 1.00)); assay: SPR (BIACORE), antibody captured, FcγR analyte, 25 C; KD of SG1 divided by KD of variant
T13 construct: also called cyno FcγRIIIaS; cynoFcgRIIIaS
T13 chain: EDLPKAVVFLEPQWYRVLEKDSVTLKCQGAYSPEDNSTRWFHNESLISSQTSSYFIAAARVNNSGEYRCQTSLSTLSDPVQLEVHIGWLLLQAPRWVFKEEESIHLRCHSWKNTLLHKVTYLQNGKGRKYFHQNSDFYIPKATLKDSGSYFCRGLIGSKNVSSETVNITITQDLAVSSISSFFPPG
Description: as §1

B1: M103205H795-MY051/M103202L889-SK1 (antibody, human IgG1, kappa, name in EU numbering)
heavy: QVTLKESGPVLVKPTETLTLTCTVSGIDLSHDDISWVRQAPGKGLEWVGIISYAGSTYYASWAKGRLTISKDTSKNQVVLTMTNMDPVDTATYYCARGVPAYSHGGDLWGQGTLVTVSSASTKGPSVFPLAPSSKSTSGGTAALGCLVKDYFPEPVTVSWNSGALTSGVHTFPAVLQSSGLYSLSSVVTVPSSSLGTQTYICNVNHKPSNTKVDKKVEPKSCDKTHTCPPCPAPELLNGPSVFLFPPKPKDTLMISRTPEVTCVVVDVSEEDGEVKFNWYVDGVEVHNAKTKPREEQYNSTYRVVSVLTVLHQDWLNGKEYKCKVSNKALPAPIEKTISKAKGQPREPQVYTLPPSREEMTKNQVSLTCLVKGFYPSDIAVEWESNGQPENNYKTTPPVLDSDGSFFLYSKLTVDKSRWQQGNVFSCSVMHEALHNHYTQKSLSLSP
light: DIVMTQSPATLSLSPGERATLSCTSSQSVYHANWLSWFQQKPGQPPKLLIYWASTLAYGVPSRFSGSGSGTDFTLTISSLQPEDAATYYCAGGYGGGRYAFGQGTKVEIKRTVAAPSVFIFPPSDEQLKSGTASVVCLLNNFYPREAKVQWKVDNALQSGNSQESVTEQDSKDSTYSLSSTLTLSKADYEKHKVYACEVTHQGLSSPVTKSFNRGEC
notes: Fc variant of MS1032LO06-SG1; positions in EU numbering
How did the Kd [1] turn out when B1 was run?
The Kd was 2200 nM.

What about the Kd [2] of the same binder?
Its Kd is 2100 nM.

What about the Kd [3] of the same binder?
Its Kd is 7400 nM.

What about the “KD fold (SG1 = 1)” value [4] of the same binder?
The value was 0.17 fold.

B2: M103205H795-MY115/M103202L889-SK1 (antibody, human IgG1, kappa, name in EU numbering)
heavy: B1 heavy with S269A, G273P, P398M
light: B1 light
notes: as for B1
What does the source list for B2?
Kd [5]: 7600 nM; Kd [2]: 850 nM; Kd [6]: 320 nM; KD fold (SG1 = 1) [4]: 0.42 fold

B3: M103205H795-MY204/M103202L889-SK1 (antibody, human IgG1, kappa, name in EU numbering)
heavy: B1 heavy with S241V, G273P, Q297L, A332K
light: B1 light
notes: as for B1
B3 was tested. Which Kd [2] did it give?
Its Kd is 3500 nM.

And the Kd [6]?
The Kd was 1500 nM.

What about the Kd [3] of the same binder?
The Kd was 11000 nM.

B4: M103205H795-MY207/M103202L889-SK1 (antibody, human IgG1, kappa, name in EU numbering)
heavy: not shown
light: B1 light
notes: as for B1
What does the source list for B4?
Kd [5]: 6900 nM; Kd [1]: 1300 nM; Kd [2]: 4100 nM; Kd [6]: 1500 nM

B5: M103205H795-MY208/M103202L889-SK1 (antibody, human IgG1, kappa, name in EU numbering)
heavy: B1 heavy with E270D, G273P, Q297L
light: B1 light
notes: as for B1
What does the source list for B5?
Kd [5]: 6700 nM; Kd [1]: 830 nM; Kd [7]: 2100 nM; Kd [2]: 28 nM; Kd [6]: 1100 nM

B6: M103205H795-MY182/M103202L889-SK1 (antibody, human IgG1, kappa, name in EU numbering)
heavy: B1 heavy with G273P, P398V
light: B1 light
notes: EU numbering
How did the “KD fold (SG1 = 1)” value [8] turn out when B6 was run?
Its value is 0.1 fold.

What about the Kd [8] of the same binder?
Its Kd is 3600 nM.

And the “KD fold (SG1 = 1)” value [9]?
Its value is 0.17 fold.

B7: M103205H795-MY184/M103202L889-SK1 (antibody, human IgG1, kappa, name in EU numbering)
heavy: B1 heavy with G273P, P398Y
light: B1 light
notes: EU numbering
Which “KD fold (SG1 = 1)” value [8] does the source give for B7 here?
Its value is 0.11 fold.

What about the Kd [8] of the same binder?
The Kd was 3300 nM.

And the “KD fold (SG1 = 1)” value [10]?
Its value is 4.7 fold.

What about the Kd [11] of the same binder?
Its Kd is 900 nM.

What about the “KD fold (SG1 = 1)” value [12] of the same binder?
Its value is 2.8 fold.

B8: M103205H795-MY200/M103202L889-SK1 (antibody)
heavy: B1 heavy with S241V, G273P, A332K
light: B1 light
How did the “KD fold (SG1 = 1)” value [8] turn out when B8 was run?
The value was 0.08 fold.

And the “KD fold (SG1 = 1)” value [9]?
Its value is 0.09 fold.

B9: M103205H795-MY207/M103202L889-SK1 (antibody, human IgG1, kappa, name in EU numbering)
heavy: not shown
light: B1 light
notes: substitutions in EU numbering, introduced into M103205H795-SG1
For B9, which “KD fold (SG1 = 1)” value [8] is on record?
Its value is 0.09 fold.

And the “KD fold (SG1 = 1)” value [12]?
Its value is 3.6 fold.

B10: M103205H795-MY208/M103202L889-SK1 (antibody, human IgG1, kappa, name in EU numbering)
heavy: B1 heavy with E270D, G273P, Q297L
light: B1 light
notes: as for B9
With B10 as the binder, how does the “KD fold (SG1 = 1)” value [8] read?
The value was 0.13 fold.

And the “KD fold (SG1 = 1)” value [12]?
Its value is 3.4 fold.

B11: M103205H795-MY209/M103202L889-SK1 (antibody, human IgG1, kappa, name in EU numbering)
heavy: B1 heavy with E270D, G273P, Q297L, K328T, A332K
light: B1 light
notes: as for B9
How did the “KD fold (SG1 = 1)” value [9] turn out when B11 was run?
The value was 0.09 fold.

B12: M103205H795-MY211/M103202L889-SK1 (antibody, human IgG1, kappa, name in EU numbering)
heavy: B1 heavy with S241V, E270D, G273P, K328T, A332K
light: B1 light
notes: as for B9
For B12, which “KD fold (SG1 = 1)” value [8] is on record?
Its value is 0.17 fold.

And the “KD fold (SG1 = 1)” value [13]?
The value was 6.5 fold.

And the “KD fold (SG1 = 1)” value [12]?
Its value is 8.8 fold.

B13: M103205H795-MY447/M103202L889-SK1 (antibody, human IgG1, kappa, name in EU numbering)
heavy: B1 heavy with P234I, N238T, E270D, G273P, A332K
light: B1 light
How did the “KD fold (SG1 = 1)” value [14] turn out when B13 was run?
The value was 0.3 fold.

B14: M103205H795-MY451/M103202L889-SK1 (antibody, human IgG1, kappa, name in EU numbering)
heavy: B1 heavy with P234N, N238T, E270D, G273P, A332K
light: B1 light
B14 was tested. Which “KD fold (SG1 = 1)” value [14] did it give?
The value was 0.2 fold.
